In patent US8748104:
Read-outs that look alike come from different tables or passages of the source.

Tests used:
skeletal Troponin I [1] = target: skeletal Troponin I (UniProt P48788); details: Luminex bead fluorescence assay, streptavidin-phycoerythrin detection; room temperature 1 h, PBS washes
skeletal Troponin I [2] = target: skeletal Troponin I (UniProt P48788); details: Luminex bead fluorescence assay, streptavidin-phycoerythrin detection; room temperature 1 h, PBS washes; remark: listed apart in the source

UniProt P48788, sequence (P48788 2-182): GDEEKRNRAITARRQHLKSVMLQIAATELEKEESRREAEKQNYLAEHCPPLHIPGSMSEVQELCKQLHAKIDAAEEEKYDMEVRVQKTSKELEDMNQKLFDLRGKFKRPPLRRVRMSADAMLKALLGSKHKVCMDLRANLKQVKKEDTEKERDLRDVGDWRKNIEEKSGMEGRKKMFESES

Sequence	Kd (skeletal Troponin I [1])	Kd (skeletal Troponin I [2])
TTAGGGGTGGTGTGGTTGGCAATTC [SEQ ID NO: 2 aptamer]	5 nM	–
GGGATGGGGTGGGTGGCCAGCGATT [SEQ ID NO: 1 aptamer]	–	37.7 nM
